Laboratory results from publication PMC10927090, “Plasmodium falciparum contains functional SCF and CRL4 ubiquitin E3 ligases, and CRL4 is critical for cell division and membrane integrity” (PLOS Pathogens, 2024).

T1: GST-tagged N-terminal of PfCullin-1 (1-300 aa) (P. falciparum, UniProt Q8IAU5 1-300)
T1 construct: P. falciparum Cullin-1 (PfCullin-1, PF3D7_0811000), N-terminal coding region, residues 1-300, in pGEX-6P-1; also called GST/Cul1N; GST/PfCul1N; source: E. coli BL21(DE3), purified (glutathione agarose, native conditions); not shown: GST, N-terminal, kept
T1 sequence (looked up): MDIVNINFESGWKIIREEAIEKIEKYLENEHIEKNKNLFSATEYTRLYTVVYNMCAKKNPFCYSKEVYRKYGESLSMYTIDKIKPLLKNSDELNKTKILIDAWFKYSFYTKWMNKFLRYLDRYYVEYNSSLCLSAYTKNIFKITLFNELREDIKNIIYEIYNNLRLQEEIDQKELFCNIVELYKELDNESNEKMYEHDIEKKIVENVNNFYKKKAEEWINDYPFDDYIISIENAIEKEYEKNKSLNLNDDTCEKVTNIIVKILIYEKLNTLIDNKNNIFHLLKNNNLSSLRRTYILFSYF

T2: GST-tagged C-terminal of PfCullin-1 (601-829 aa) (P. falciparum, UniProt Q8IAU5 601-829)
T2 construct: P. falciparum Cullin-1 (PfCullin-1, PF3D7_0811000), C-terminal coding region, residues 601-829, amplified from cDNA, in pGEX-6P-1; also called GST/Cul1C; GST/PfCul1C; source: E. coli BL21(DE3), purified (glutathione agarose, native conditions); not shown: GST, N-terminal, kept
T2 sequence (looked up): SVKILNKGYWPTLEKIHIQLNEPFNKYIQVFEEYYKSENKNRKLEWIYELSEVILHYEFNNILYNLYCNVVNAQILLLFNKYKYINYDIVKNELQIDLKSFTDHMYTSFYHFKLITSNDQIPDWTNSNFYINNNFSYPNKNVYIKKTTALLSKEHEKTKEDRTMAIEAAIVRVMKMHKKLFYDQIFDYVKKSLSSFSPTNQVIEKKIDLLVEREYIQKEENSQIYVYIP

B1: 6×His-tagged PfSkp1 (natural protein, P. falciparum, UniProt Q8ID38 1-162, looked up)
chain: MKNDKIKLVSFEGDEFIVDKNTASMSTVIMNILEVMTAEEDTIPLPNIKTPILKKIIEYMEYHINNPADEIPKPLITSNLQDVVSSWDFDFVNTDKETLYELIEASNYLDIKPLLDLTCGKIASMMKDKTTEEIRAEFDIVNDFTREEEKQIREENRWCGDI
notes: P. falciparum Skp1 (PfSkp1, PF3D7_1367000), complete coding region amplified from genomic DNA, in pET28a; also called HisSkp; HisPfSkp1; source: E. coli Rosetta-gami 2(DE3) pLysS, purified (Ni-NTA, native conditions); not shown: His6, N-terminal, kept
B2: 6×His/SUMO-tagged PfRbx1 (natural protein, P. falciparum, UniProt O77367 1-107, looked up)
chain: MADNITNDKRDIFKIHKWSAVAAWSWDISVDNCAICRNHIMDLCIECQAKTTDHENDKDKKIDKEGCTVAWGVCNHAFHLHCISRWIKARQVCPLDNTTWEFQKATD
notes: P. falciparum Rbx1 (PfRbx1, PF3D7_0319100), complete coding region, subcloned into pSMO; also called HisSUMO/Rbx; HisSUMO/PfRbx1; source: E. coli Rosetta-gami 2(DE3) pLysS, purified (Ni-NTA, native conditions); not shown: His6, N-terminal, kept; SUMO, N-terminal, kept

Assays:
[1] = biological target: T1, GST-tagged N-terminal of PfCullin-1 …; test: far-Western, overlay or dot blot; dot blot protein overlay: different amounts of HisSkp, HisSUMO/Rbx or HisSUMO spotted on nitrocellulose, blocked (3% BSA in PBS-T), overlaid with 10 μg of GST or GST-tagged protein for 12 h at 4°C, detected with anti-GST antibodies; details: both partners purified
[2] = biological target: T2, GST-tagged C-terminal of PfCullin-1 …; test: as above; details: both partners purified

| Binder | binding result [1] | binding result [2] |
| --- | --- | --- |
| B1 | binds | – |
| B2 | – | binds |
